Experimental data published in publication PMC6812003 (Redox Biology, 2019).

Experiments:
[1] = target: recombinant p16^INK4A (wild type) (Homo sapiens) (UniProt P42771); assay: non-reducing SDS-PAGE
[2] = target: T1, endogenous p16^INK4A (human (endogenous in HEK293T)), P42771; assay: co-IP; conditions: remark: other sources report otherwise
T1 chain: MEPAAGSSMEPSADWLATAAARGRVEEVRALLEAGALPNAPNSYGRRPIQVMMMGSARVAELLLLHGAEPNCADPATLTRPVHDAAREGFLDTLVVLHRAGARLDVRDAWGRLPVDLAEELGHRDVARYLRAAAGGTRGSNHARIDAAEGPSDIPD

[3] = target: the molecule itself; assay: co-IP

recombinant p16^INK4A (wild type) (from UniProt P42771 1-156) (natural protein)
stoichiometry N [1]: 2

B1: endogenous p16^INK4A, P42771 1-156 (natural protein)
chain: T1 chain
stoichiometry N [2]: 2

B2: FLAG-p16^INK4A (wild type) (natural protein, human, UniProt P42771 9-156, looked up)
chain: MEPSADWLATAAARGRVEEVRALLEAGALPNAPNSYGRRPIQVMMMGSARVAELLLLHGAEPNCADPATLTRPVHDAAREGFLDTLVVLHRAGARLDVRDAWGRLPVDLAEELGHRDVARYLRAAAGGTRGSNHARIDAAEGPSDIPD
stoichiometry N [3]: 2
